{"source": "paper PMC2718843", "key": {"[1]": {"target": "gp120 from CC1/85 cl.6 (HIV-1)"}, "[2]": {"target": "gp120 from D1/85.16 cl.23 (HIV-1)"}, "[3]": {"target": "gp120 from CC101.19 cl.7 (HIV-1)"}, "[4]": {"target": "gp120 from CC1/85 cl.7 (HIV-1)"}}, "data": [{"substance": "sCD4 (domain or fragment)", "values": [{"measurement": "IC50 for inhibition of replication of the clonal virus in PBMC (p24 antigen); inhibits gp120-CD4 binding", "setting": "[1]", "result": "> 25", "unit": "µg/mL"}, {"measurement": "IC50 for inhibition of replication of the clonal virus in PBMC (p24 antigen); inhibits gp120-CD4 binding", "setting": "[2]", "result": 10, "unit": "µg/mL"}, {"measurement": "IC50 for inhibition of replication of the clonal virus in PBMC (p24 antigen); inhibits gp120-CD4 binding", "setting": "[3]", "result": 0.1, "unit": "µg/mL"}, {"measurement": "IC50 for inhibition of replication of the clonal virus in PBMC (p24 antigen); inhibits gp120-CD4 binding", "setting": "[4]", "result": 0.1, "unit": "µg/mL"}]}]}
